Data taken from publication PMC10000386.

B1: Bak [human] / Bak [human] (parent)
chain 1: MASGQGPGPPRQECGEPALPSASEEQVAQDTEEVFRSYVFYRHQQEQEAEGVAAPADPEMVTLPLQPSSTMGQVGRQLAIIGDDINRRYDSEFQTMLQHLQPTAENAYEYFTKIATSLFESGINWGRVVALLGFGYRLALHVYQHGLTGFLGQVTRFVVDFMLHHCIARWIAQRGGWVAALNLGNGPILNVLVVLGVVLLGQFVVRRFFKS
chain 2: B1 chain 1

Variants of: B1
Test: BiFC (flow cytometry)
Settings: with Bak [human]; 6 independent experiments (H164A), 8 (WT); read off a plot

Row | response (Mean Venus/Mean mRFP) | Variant
1 | 1.8 | chain 1 H164A

Same assay, conditions: with Bak [human]; 6 independent experiments; read off a plot

Row | response (Mean Venus/Mean mRFP) | Variant
2 | 1.8 | chain 1 H164A
